B1: mSin3A PAH2 (mammalian Sin3A PAH2 domain, residues 295-385) (domain or fragment, UniProt Q60520 295-385, looked up)
chain: SLQNNQPVEFNHAINYVNKIKNRFQGQPDIYKAFLEILHTYQKEQRNAKEAGGNYTPALTEQEVYAQVARLFKNQEDLLSEFGQFLPDANS
B2: Pf1 200-241 (human Pf1 residues 200-241, wild type) (domain or fragment, UniProt Q96QT6 200-241, looked up)
chain: DYVQPQLRRPFELLIAAAMERNPTQFQLPNELTCTTALPGSS
B3: Pf1 200-241 Leu212Ala (domain or fragment, human, UniProt Q96QT6 200-241, looked up)
chain: B2 chain with L13A
B4: Pf1 200-241 Asn221Glu (domain or fragment, human, UniProt Q96QT6 200-241, looked up)
chain: B2 chain with N22E
B5: Pf1 200-241 Phe225Ala (domain or fragment, human, UniProt Q96QT6 200-241, looked up)
chain: B2 chain with F26A

Assay [1] addresses mSin3A PAH2 (Mus musculus) (UniProt Q60520). As to conditions: cited from earlier work.
For assay [2], the target named is Pf1 200-241 (human Pf1 residues 200-241, wild type) (human) (UniProt Q96QT6). Nature of the assay: ITC.
The assay “Pf1 200-241 Leu212Ala” deals with B3. Nature of the assay: ITC.
Assay [3] deals with B2. In words: ITC. On the technique in general: Isothermal titration calorimetry measures the heat released or taken up as one component is titrated into another.
The assay “Pf1 200-241 Asn221Glu” concerns the target B4. In words: ITC.
The target of the assay “Pf1 200-241 Phe225Ala” is B5. In words: ITC.
Assay [4] deals with B1. In words: ITC.
Assay [5] has as its target MRG15 MRG (human MRG15 MRG domain, residues 155-323) (human, UniProt Q9UBU8-2 155-323). In words: ITC.

Positions count from the first letter of the chain named.

Chain of MRG15 MRG (human MRG15 MRG domain, residues 155-323) (Q9UBU8 194-362): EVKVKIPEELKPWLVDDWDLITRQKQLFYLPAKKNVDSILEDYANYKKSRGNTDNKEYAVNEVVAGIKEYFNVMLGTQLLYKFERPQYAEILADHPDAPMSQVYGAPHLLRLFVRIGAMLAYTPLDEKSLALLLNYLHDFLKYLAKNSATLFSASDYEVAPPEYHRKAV
Chain of mSin3A PAH2 (Mus musculus) (Q60520 297-386): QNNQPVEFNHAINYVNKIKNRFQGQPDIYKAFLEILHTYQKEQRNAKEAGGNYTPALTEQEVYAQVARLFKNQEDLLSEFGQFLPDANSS

Turning to Mad1/Mxd1 (from UniProt Q05195), the Kd (in general, the free concentration of one partner at which half of the binding sites on the other are occupied at equilibrium, for simple one-to-one binding) in assay [1] was 50 nM.

“mSin3B PAH2 (mammalian Sin3B PAH2 domain) (domain or fragment)”: in assay [2], the Kd is 2930 nM; the dH is -9.64 kcal/mol; the stoichiometry N – broadly, a count of units in the complex or per binding partner – amounted to 1.02.

Regarding B1, the dH with Pf1 200-241 Leu212Ala is -4.31 ± 0.49 kcal/mol; in assay [3], -6.58 ± 0.48 kcal/mol; with Pf1 200-241 Asn221Glu, -7.67 ± 0.43 kcal/mol; with Pf1 200-241 Phe225Ala, -4.97 kcal/mol. The “stoichiometry N” value with Pf1 200-241 Leu212Ala was 1 ± 0.11; in assay [3], 0.99 ± 0.05; with Pf1 200-241 Asn221Glu, 1.16 ± 0.08; with Pf1 200-241 Phe225Ala, 1.12.

In assay [4], B2 returned a Kd of 2150 ± 450 nM. Further, in assay [5], the Kd was found to be 15 ± 3 nM, the dH is -13.1 ± 0.4 kcal/mol and the “stoichiometry N” value is 0.82 ± 0.08.

Molecule B3 displayed a Kd in assay [4] of 2660 ± 460 nM.

Take B4: the affinity in assay [4], expressed as Kd, was 630 ± 50 nM.

In assay [4], B5 registered a Kd of 1650 nM.

The record behind these values is article PMC3096069 (Journal of molecular biology, 2011).
